In patent publication US20040091878, “Zinc finger domain recognition code and uses thereof” (published 2004):

B1: Zif268 target probe (dsDNA)
DNA 1: TATATATAGCGTGGGCGTTATATATA
DNA 2: TATATATAACGCCCACGCTATATATA
B2: AL1 target probe (dsDNA)
DNA 1: TATATATAAGTAAGGTAGTATATATA
DNA 2: TATATATACTACCTTACTTATATATA

Legend:
Zif268 = Zif268 (UniProt P08046 P08046:333-421); assay: EMSA; half-maximal binding; positive control; 0.1 mM ZnCl2
[1] = biological target: AL1 ZFP (Clone 1, 3-finger, Sp1C domain 2 framework) (artificial); assay: EMSA; half-maximal binding also 18 nM; 10 mM Tris pH 7.5, 100 mM NaCl, 1 mM MgCl2, 0.1 mM ZnCl2, poly(dA-dT)2, on ice; conditions: tags: expressed from pET-21a in E. coli BL21(DE3)pLysS, Bio-Rex 70 purified; label: 5'-32P
Chain of AL1 ZFP (Clone 1, 3-finger, Sp1C domain 2 framework) (artificial) (chain, as listed by the source): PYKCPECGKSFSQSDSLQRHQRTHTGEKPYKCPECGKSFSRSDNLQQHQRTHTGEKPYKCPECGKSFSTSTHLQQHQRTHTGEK

Row | Binder | apparent K (half saturation) (Zif268) [nM] | Kd [1] [nM]
1 | B1 | 4 | –
2 | B2 | – | 18
